{
  "source": "paper PMC7060279",
  "about": "(2020)",
  "binders": {"B1": {"name": "CCN1-WT (recombinant matricellular protein CCN1) (natural protein)", "chain": "TCPAACHCPLEAPKCAPGVGLVRDGCGCCKVCAKQLNEDCSKTQPCDHTKGLECNFGASSTALKGICRAQSEGRPCEYNSRIYQNGESFQPNCKHQCTCIDGAVGCIPLCPQELSLPNLGCPNPRLVKVSGQCCEEWVCDEDSIKDSLDDQDDLLGLDASEVELTRNNELIAIGKGSSLKRLPVFGTEPRVLFNPLHAHGQKCIVQTTSWSQCSKSCGTGISTRVTNDNPECRLVKETRICEVRPCGQPVYSSLKKGKKCSKTKKSPEPVRFTYAGCSSVKKYRPKYCGSCVDGRCCTPLQTRTVKMRFRCEDGEMFSKNVMMIQSCKCNYNCPHPNEASFRLYSLFNDIHKFRD"}},
  "experiment_in_all_cases": "SPR",
  "key": {"[1]": {"molecular_target": "human recombinant TLR2 protein (human, UniProt O60603 21-588)", "sequence (O60603 21-588)": "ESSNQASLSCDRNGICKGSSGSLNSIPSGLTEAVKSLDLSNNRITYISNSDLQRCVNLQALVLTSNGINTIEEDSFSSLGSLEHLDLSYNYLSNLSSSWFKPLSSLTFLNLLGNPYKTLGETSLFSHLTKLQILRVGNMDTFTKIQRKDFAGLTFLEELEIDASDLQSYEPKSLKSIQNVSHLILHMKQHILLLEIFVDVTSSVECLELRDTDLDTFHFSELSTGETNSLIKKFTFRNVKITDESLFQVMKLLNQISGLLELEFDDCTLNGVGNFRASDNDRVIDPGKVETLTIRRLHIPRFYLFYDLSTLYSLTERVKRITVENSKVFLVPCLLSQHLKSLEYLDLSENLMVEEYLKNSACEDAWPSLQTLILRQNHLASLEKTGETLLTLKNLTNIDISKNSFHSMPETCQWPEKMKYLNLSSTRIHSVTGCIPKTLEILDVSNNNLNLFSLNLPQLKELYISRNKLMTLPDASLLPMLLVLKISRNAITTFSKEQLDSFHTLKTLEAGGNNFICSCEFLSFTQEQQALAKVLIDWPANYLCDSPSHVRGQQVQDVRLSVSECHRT"}, "[2]": {"molecular_target": "human recombinant TLR4 protein (without MD2) (human, UniProt O00206 24-631)", "sequence (O00206 24-631)": "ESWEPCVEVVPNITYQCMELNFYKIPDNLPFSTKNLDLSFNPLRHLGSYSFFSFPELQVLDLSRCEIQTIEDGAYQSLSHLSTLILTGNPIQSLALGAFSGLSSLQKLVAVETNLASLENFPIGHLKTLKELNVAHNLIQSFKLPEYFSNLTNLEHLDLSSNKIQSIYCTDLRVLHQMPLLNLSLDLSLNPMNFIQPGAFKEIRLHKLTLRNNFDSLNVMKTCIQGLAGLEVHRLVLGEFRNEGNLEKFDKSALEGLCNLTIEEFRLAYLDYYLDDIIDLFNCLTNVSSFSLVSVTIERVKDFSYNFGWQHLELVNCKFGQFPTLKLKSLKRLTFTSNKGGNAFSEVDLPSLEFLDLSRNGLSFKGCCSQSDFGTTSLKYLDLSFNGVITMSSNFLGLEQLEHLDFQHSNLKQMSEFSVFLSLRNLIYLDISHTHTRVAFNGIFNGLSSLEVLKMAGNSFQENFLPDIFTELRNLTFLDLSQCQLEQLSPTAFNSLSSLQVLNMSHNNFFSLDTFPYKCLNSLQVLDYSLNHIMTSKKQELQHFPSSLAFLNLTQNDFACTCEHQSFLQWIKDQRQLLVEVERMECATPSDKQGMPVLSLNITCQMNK"}, "integrin αvβ3 protein": {"molecular_target": "T1, integrin αvβ3 protein (UniProt P06756 31-1048; P05106 27-718)", "T1 chain 1": "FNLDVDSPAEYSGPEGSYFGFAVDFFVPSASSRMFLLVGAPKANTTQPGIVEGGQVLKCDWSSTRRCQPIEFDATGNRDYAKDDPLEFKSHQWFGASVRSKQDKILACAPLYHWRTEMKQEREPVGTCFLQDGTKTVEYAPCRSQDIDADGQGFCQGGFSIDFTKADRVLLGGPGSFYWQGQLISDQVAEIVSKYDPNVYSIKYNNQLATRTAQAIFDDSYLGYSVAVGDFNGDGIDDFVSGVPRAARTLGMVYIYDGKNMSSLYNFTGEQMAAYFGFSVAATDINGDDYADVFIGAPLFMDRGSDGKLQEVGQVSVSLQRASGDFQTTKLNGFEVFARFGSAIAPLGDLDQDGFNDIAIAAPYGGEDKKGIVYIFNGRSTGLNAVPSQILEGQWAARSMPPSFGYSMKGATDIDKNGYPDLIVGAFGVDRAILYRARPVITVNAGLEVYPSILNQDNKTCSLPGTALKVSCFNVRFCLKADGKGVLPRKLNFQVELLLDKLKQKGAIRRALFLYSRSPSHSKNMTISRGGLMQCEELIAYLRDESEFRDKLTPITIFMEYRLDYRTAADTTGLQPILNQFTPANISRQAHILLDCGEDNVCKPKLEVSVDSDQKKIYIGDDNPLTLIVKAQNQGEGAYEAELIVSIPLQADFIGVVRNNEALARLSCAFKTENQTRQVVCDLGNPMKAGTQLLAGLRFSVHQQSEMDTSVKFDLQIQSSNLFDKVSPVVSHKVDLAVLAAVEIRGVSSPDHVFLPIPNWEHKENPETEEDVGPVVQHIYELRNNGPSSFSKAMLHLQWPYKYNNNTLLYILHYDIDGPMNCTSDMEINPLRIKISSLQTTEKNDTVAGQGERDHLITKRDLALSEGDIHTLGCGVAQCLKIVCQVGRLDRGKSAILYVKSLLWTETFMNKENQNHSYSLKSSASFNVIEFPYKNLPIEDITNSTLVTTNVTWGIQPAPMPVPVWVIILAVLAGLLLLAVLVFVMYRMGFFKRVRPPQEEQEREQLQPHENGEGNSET", "T1 chain 2": "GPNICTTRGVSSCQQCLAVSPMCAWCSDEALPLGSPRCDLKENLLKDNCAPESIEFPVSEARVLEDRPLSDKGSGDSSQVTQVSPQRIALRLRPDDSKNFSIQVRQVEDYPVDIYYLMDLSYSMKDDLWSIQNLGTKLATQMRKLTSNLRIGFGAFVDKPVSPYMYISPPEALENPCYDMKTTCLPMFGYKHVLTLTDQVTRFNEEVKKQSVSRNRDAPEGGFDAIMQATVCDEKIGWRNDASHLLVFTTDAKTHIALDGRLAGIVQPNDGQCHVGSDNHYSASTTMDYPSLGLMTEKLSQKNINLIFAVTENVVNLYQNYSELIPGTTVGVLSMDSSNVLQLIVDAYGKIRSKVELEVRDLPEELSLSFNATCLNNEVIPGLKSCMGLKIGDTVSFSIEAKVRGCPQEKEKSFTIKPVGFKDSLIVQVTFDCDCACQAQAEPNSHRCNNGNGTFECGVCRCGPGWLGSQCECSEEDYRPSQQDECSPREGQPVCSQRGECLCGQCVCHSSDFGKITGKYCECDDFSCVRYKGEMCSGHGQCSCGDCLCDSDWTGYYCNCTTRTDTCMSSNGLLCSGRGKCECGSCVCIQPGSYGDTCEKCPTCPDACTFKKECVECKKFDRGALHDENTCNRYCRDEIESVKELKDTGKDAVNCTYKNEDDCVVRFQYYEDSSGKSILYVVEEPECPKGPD"}},
  "data": [
    {"binder": "B1", "values": [
      {"measurement": "koff", "setting": "[1]", "value": 0.0146, "unit": "s⁻¹"},
      {"measurement": "koff", "setting": "[2]", "value": 0.00288, "unit": "s⁻¹"},
      {"measurement": "koff", "setting": "integrin αvβ3 protein", "value": 0.0193, "unit": "s⁻¹"}
    ]}
  ]
}
